For two molecules, Kd results are on record in patent US20170296617A1 (UNIVERSITY OF HOUSTON SYSTEM, published 2017).

No end group written: not given here. TAT = TAT cell-penetrating sequence fused at N-terminus

The target of assay [1] is T1, ROCK2 (UniProt O75116 5-554, limits assumed).
T1 construct: also called ROKa
As to the kind of experiment: SPR (BiaCore), protein immobilized on CM-5 chip, peptide as analyte; no ROCK-II sensorgram is drawn.

Assay [2] deals with T2, ROCK1 (UniProt Q13464 1-553, limits assumed).
T2 construct: also called Rho-associated kinase 1; p160ROCK
As to the kind of experiment: SPR (BiaCore), protein immobilized on CM-5 chip, peptide as analyte; the sheet does not say whether ROCK-I is ROCK1-553 or ROCK1-415. (In general: In SPR one partner is held on a chip, and binding of the other changes the refractive index at the surface.)

In assay [3] the target is T2, ROCK1. As to the kind of experiment: SPR (BiaCore, proteins immobilized on CM-5 chip).

T2 sequence (Q13464 1-553 limits assumed): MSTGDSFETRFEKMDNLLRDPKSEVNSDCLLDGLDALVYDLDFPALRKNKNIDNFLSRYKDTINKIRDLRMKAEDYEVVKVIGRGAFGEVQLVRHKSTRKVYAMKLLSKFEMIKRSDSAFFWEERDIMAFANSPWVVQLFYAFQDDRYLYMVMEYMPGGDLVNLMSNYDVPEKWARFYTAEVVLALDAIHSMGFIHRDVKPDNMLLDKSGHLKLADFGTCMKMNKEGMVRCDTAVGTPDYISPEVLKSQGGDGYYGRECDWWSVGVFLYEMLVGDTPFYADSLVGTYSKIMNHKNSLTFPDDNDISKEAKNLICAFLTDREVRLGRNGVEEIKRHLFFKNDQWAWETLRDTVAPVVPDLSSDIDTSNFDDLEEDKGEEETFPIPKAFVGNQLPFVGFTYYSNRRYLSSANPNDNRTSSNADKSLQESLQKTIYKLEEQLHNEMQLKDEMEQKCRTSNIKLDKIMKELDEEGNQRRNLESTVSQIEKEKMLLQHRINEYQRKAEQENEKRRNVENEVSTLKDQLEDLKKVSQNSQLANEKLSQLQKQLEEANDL
T1 sequence (O75116 5-554 limits assumed): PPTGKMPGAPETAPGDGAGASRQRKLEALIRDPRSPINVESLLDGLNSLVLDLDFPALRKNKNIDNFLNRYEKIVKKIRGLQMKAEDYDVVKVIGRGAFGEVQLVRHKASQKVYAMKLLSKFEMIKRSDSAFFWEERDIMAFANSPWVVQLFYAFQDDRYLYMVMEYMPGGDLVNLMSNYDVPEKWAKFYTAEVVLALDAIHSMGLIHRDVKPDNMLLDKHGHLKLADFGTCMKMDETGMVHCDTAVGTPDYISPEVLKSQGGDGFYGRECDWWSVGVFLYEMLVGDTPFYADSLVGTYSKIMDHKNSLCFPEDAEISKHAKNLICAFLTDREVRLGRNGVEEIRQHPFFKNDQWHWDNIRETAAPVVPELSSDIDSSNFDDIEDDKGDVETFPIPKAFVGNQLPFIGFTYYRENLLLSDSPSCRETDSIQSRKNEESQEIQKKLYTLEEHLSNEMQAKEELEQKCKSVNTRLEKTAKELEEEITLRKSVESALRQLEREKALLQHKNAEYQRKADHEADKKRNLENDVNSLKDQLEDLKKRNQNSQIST

B1: TATpeptide25 (peptide25 with the TAT sequence fused at its N-terminal end) (peptide)
peptide: {TAT}-ERTYSPSTAVRS
notes: Synthetic peptide added to the cell culture medium
Take B1: the dissociation constant (Kd) – broadly, the constant that tells how readily two partners part at equilibrium – in assay [1] amounted to 5150 nM; in assay [2], 1450 nM.
The molecule ERTYSPSTAVRS (also called PD2w-5; Pep25-4) [peptide25 (ERTYSPSTAVRS)] showed a Kd in assay [3] of 1500 nM.
